In doi:10.1101/2025.06.14.659724:

Target: PSR2-PDF1-Cα heterotrimer (not stated | A. thaliana | human) (UniProt E0W4V5)
Assay: cryo-EM structure

Substance: PSR2-PDF1-Cα heterotrimer (from UniProt E0W4V5;P67775) (complex)
- stoichiometry N: 2
